According to patent publication US20220362357A1, “Synergistic Combinations of Amino Acid Depletion Agent Sensitizers (AADAS) and Amino Acid Depletion Agents (AADA), and Therapeutic Methods of Use Thereof” (STICHTING RADBOUD UNIVERSITAIR MEDISCH CENTRUM, priority 2018, published 2022):

Legend:
Experiment in all cases: PDX ALL cells co-cultured on hTERT MSCs, ASNase x ibrutinib dilution matrix, microscopy
Format in all cases: cell-based, human
[1] = tested on: PDX m4136; conditions: m4136 (3 d), ibrutinib B0=0 to B9=100
Experimental: (§1) After 2-4 months these mice developed full blown leukemia with an immunophenotype and genetic composition that in the large majority of cases is identical to the original material at the time of injection.
(§2) Briefly, hTERT immortalized MSCs were seeded in either a 384 wells format (microscopy) or a 96 wells format (7AAD staining) and allowed to settle for 24 hours prior to the addition of ALL xenografts. […] After 3 and 7 days of incubation, cell death was analyzed using microscopy using live cells staining or flowcytometry using 7AAD to discriminate between live or dead cells.

[2] = tested on: PDX m764; conditions: m764 (3 d), ibrutinib B0=0 to B9=100
Experimental: as §1, §2

[3] = tested on: PDX m4206; conditions: ibrutinib B0=0 to B9=100
Experimental: as §1, §2

[4] = tested on: PDX m1717; conditions: m1717 (3 d), ibrutinib B0=0 to B9=100
Experimental: as §1, §2

[5] = tested on: PDX m838; conditions: m838 (3 d), ibrutinib B0=0 to B9=100
Experimental: as §1, §2

[6] = tested on: PDX m1338; conditions: m1338 (7 d), ibrutinib B0=0 to B9=100
Experimental: as §1, §2

B1: ASNase: native E. coli ASNase (NCBI WP_000394140.1), used in the in vitro studies (protein, UniProt P00805 23-348, looked up)
L-asparaginase 2: LPNITILATGGTIAGGGDSATKSNYTVGKVGVENLVNAVPQLKDIANVKGEQVVNIGSQDMNDNVWLTLAKKINTDCDKTDGFVITHGTDTMEETAYFLDLTVKCDKPVVMVGAMRPSTSMSADGPFNLYNAVVTAADKASANRGVLVVMNDTVLDGRDVTKTNTTDVATFKSVNYGPLGYIHNGKIDYQRTPARKHTSDTPFDVSKLNELPKVGIVYNYANASDLPAKALVDAGYDGIVSAGVGNGNLYKSVFDTLATAAKTGTAVVRSSRVPTGATTQDAEVDDAKYGFVASGTLNPQKARVLLQLALTQTKDPQQIQQIFNQY
live cells by automated microscopy (table names no quantity) ([1]; ASNase A5=1): 2157
live cells by automated microscopy (table names no quantity) ([1]; ASNase A6=3): 2652
live cells by automated microscopy (table names no quantity) ([1]; ASNase A7=10): 2136
live cells by automated microscopy (table names no quantity) ([1]; ASNase A8=32): 2172
live cells by automated microscopy (table names no quantity) ([1]; ASNase A9 (A=100)): 39
live cells by automated microscopy (table names no quantity) ([2]; ASNase A1=0.01): 546
live cells by automated microscopy (table names no quantity) ([2]; ASNase A2=0.03): 1126
live cells by automated microscopy (table names no quantity) ([2]; ASNase A3=0.1): 109
live cells by automated microscopy (table names no quantity) ([2]; ASNase A4=0.3): 250
live cells by automated microscopy (table names no quantity) ([2]; ASNase A5=1): 915
live cells by automated microscopy (table names no quantity) ([2]; ASNase A6=3): 887
live cells by automated microscopy (table names no quantity) ([2]; ASNase A7=10): 594
live cells by automated microscopy (table names no quantity) ([2]; ASNase A8=32): 157
live cells by automated microscopy (table names no quantity) ([2]; ASNase A9 (A=100)): 2
live cells by automated microscopy (table names no quantity) ([3]; m4206 (3 d), ASNase A1=0.01): 3112
live cells by automated microscopy (table names no quantity) ([3]; m4206 (3 d), ASNase A2=0.03): 2484
live cells by automated microscopy (table names no quantity) ([3]; m4206 (3 d), ASNase A3=0.1): 3106
live cells by automated microscopy (table names no quantity) ([3]; m4206 (3 d), ASNase A4=0.3): 2323
live cells by automated microscopy (table names no quantity) ([3]; m4206 (3 d), ASNase A5=1): 2141
live cells by automated microscopy (table names no quantity) ([3]; m4206 (3 d), ASNase A6=3): 2304
live cells by automated microscopy (table names no quantity) ([3]; m4206 (3 d), ASNase A7=10): 1979
live cells by automated microscopy (table names no quantity) ([3]; m4206 (3 d), ASNase A8=32): 301
live cells by automated microscopy (table names no quantity) ([3]; m4206 (3 d), ASNase A9 (A=100)): 69
live cells by automated microscopy (table names no quantity) ([3]; m4206 (7 d), ASNase A1=0.01): 56
live cells by automated microscopy (table names no quantity) ([3]; m4206 (7 d), ASNase A2=0.03): 52
live cells by automated microscopy (table names no quantity) ([3]; m4206 (7 d), ASNase A3=0.1): 86
live cells by automated microscopy (table names no quantity) ([3]; m4206 (7 d), ASNase A4=0.3): 37
live cells by automated microscopy (table names no quantity) ([3]; m4206 (7 d), ASNase A5=1): 83
live cells by automated microscopy (table names no quantity) ([3]; m4206 (7 d), ASNase A6=3): 87
live cells by automated microscopy (table names no quantity) ([3]; m4206 (7 d), ASNase A7=10): 68
live cells by automated microscopy (table names no quantity) ([3]; m4206 (7 d), ASNase A8=32): 24
live cells by automated microscopy (table names no quantity) ([3]; m4206 (7 d), ASNase A9 (A=100)): 35
live cells by automated microscopy (table names no quantity) ([4]; ASNase A1=0.01): 5977
live cells by automated microscopy (table names no quantity) ([4]; ASNase A2=0.03): 6674
live cells by automated microscopy (table names no quantity) ([4]; ASNase A3=0.1): 5155
live cells by automated microscopy (table names no quantity) ([4]; ASNase A4=0.3): 6700
live cells by automated microscopy (table names no quantity) ([4]; ASNase A5=1): 6589
live cells by automated microscopy (table names no quantity) ([4]; ASNase A6=3): 5782
live cells by automated microscopy (table names no quantity) ([4]; ASNase A7=10): 3762
live cells by automated microscopy (table names no quantity) ([4]; ASNase A8=32): 571
live cells by automated microscopy (table names no quantity) ([4]; ASNase A9 (A=100)): 24
live cells by automated microscopy (table names no quantity) ([5]; ASNase A1=0.01): 2793
live cells by automated microscopy (table names no quantity) ([5]; ASNase A2=0.03): 3003
live cells by automated microscopy (table names no quantity) ([5]; ASNase A3=0.1): 3109
live cells by automated microscopy (table names no quantity) ([5]; ASNase A4=0.3): 2839
live cells by automated microscopy (table names no quantity) ([5]; ASNase A5=1): 2454
live cells by automated microscopy (table names no quantity) ([5]; ASNase A6=3): 3049
live cells by automated microscopy (table names no quantity) ([5]; ASNase A7=10): 2431
live cells by automated microscopy (table names no quantity) ([5]; ASNase A8=32): 175
live cells by automated microscopy (table names no quantity) ([5]; ASNase A9 (A=100)): 18
live cells by automated microscopy (table names no quantity) ([6]; ASNase A1=0.01): 2207
live cells by automated microscopy (table names no quantity) ([6]; ASNase A2=0.03): 3174
live cells by automated microscopy (table names no quantity) ([6]; ASNase A3=0.1): 2916
live cells by automated microscopy (table names no quantity) ([6]; ASNase A4=0.3): 2372
live cells by automated microscopy (table names no quantity) ([6]; ASNase A5=1): 2788
live cells by automated microscopy (table names no quantity) ([6]; ASNase A6=3): 2166
live cells by automated microscopy (table names no quantity) ([6]; ASNase A7=10): 1468
live cells by automated microscopy (table names no quantity) ([6]; ASNase A8=32): 292
live cells by automated microscopy (table names no quantity) ([6]; ASNase A9 (A=100)): 1
